The values below come from paper PMC9122904, “Insights into the client protein release mechanism of the ATP-independent chaperone Spy” (Nature Communications, 2022).

Holding throughout (assay): BLI; Octet RED96; client biotinylated and loaded on streptavidin sensors; Spy or Spy variant in solution at 0.25, 0.5, 1, 1.5 and 2 μM; 40 mM HEPES, 150 mM NaCl, pH 7.5; Kd calculated as koff/kon
Common to all, as to conditions: both partners purified

One experiment has as its target T1, Spy_(R89D D26K) (UniProt P77754 24-161, D26K | R89D).
T1 construct: also called D26K R89D; source: E. coli BL21 (DE3), purified (Ni-NTA, cation exchange, SEC); not shown: His6, N-terminal, cleaved; SUMO, N-terminal, cleaved
T1 sequence (looked up): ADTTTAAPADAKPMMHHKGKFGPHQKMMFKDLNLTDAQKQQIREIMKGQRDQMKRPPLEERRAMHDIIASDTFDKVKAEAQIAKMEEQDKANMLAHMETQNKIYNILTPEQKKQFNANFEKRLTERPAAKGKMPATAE
The procedure, abridged:
(§1)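 Biolayer interferometry used an Octet RED96: client proteins biotinylated with EZ-link NHS-biotin (1:1 molar ratio) were loaded on streptavidin sensors, dipped into 40 mM HEPES, 150 mM NaCl, pH 7.5 containing Spy protein at 0.25, 0.5, 1, 1.5 and 2 μM, then moved to Spy-free buffer. Wavelength-shift association and dissociation curves were fitted in SigmaPlot 12.0, giving observed association rate and koff. kon came from observed rate versus Spy concentration; Kd was koff/kon.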

In the next experiment the target is T2, Spy D26K R50D (UniProt P77754 24-161, D26K | R50D).
T2 construct: source: E. coli BL21 (DE3), purified (Ni-NTA, cation exchange, SEC); not shown: His6, N-terminal, cleaved; SUMO, N-terminal, cleaved
T2 sequence (looked up): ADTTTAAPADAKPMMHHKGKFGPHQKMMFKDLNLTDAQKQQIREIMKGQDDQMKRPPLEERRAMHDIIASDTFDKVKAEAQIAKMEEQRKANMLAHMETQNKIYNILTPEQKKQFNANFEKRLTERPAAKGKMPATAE
The procedure, abridged: as §1

A further experiment addresses T3, Spy H65D (UniProt P77754 24-161, H65D).
T3 construct: source: E. coli BL21 (DE3), purified (Ni-NTA, cation exchange, SEC); not shown: His6, N-terminal, cleaved; SUMO, N-terminal, cleaved
T3 sequence (looked up): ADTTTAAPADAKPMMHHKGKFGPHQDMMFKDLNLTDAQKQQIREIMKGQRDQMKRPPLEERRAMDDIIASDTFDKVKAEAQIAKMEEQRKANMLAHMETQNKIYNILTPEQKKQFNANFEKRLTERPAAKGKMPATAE
The procedure, abridged:
as §1

In a further experiment the target is T4, Spy D26K K75D (UniProt P77754 24-161, D26K | K75D).
T4 construct: source: E. coli BL21 (DE3), purified (Ni-NTA, cation exchange, SEC); not shown: His6, N-terminal, cleaved; SUMO, N-terminal, cleaved
T4 sequence (looked up): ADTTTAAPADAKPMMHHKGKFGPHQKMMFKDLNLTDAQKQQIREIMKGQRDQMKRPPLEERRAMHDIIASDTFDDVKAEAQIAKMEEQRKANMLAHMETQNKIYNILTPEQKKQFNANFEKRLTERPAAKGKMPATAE
A digest of the protocol:
as §1

Another experiment has as its target T5, Spy_(D26K K54D R55D) (UniProt P77754 24-161, D26K | K54D | R55D).
T5 construct: source: E. coli BL21 (DE3), purified (Ni-NTA, cation exchange, SEC); not shown: His6, N-terminal, cleaved; SUMO, N-terminal, cleaved
T5 sequence (looked up): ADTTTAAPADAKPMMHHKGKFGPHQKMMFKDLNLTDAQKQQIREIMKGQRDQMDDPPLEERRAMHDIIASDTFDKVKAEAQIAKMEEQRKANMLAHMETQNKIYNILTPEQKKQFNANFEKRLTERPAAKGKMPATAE
The procedure, abridged:
as §1

The target in the next experiment is T6, Spy_(R50D) (UniProt P77754 24-161, R50D).
T6 construct: source: E. coli BL21 (DE3), purified (Ni-NTA, cation exchange, SEC); not shown: His6, N-terminal, cleaved; SUMO, N-terminal, cleaved
T6 sequence (looked up): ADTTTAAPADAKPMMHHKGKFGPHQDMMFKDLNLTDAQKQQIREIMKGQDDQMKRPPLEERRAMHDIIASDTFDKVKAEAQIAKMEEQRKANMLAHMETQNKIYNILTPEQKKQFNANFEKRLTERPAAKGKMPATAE
The procedure, abridged: as §1

A further experiment concerns the target T7, Spy_(H96D) (UniProt P77754 24-161, H96D).
T7 construct: source: E. coli BL21 (DE3), purified (Ni-NTA, cation exchange, SEC); not shown: His6, N-terminal, cleaved; SUMO, N-terminal, cleaved
T7 sequence (looked up): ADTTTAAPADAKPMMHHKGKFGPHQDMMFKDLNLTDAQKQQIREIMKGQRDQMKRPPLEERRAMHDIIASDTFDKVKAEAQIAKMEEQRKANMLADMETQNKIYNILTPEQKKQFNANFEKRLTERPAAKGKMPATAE
A digest of the protocol:
as §1

The next experiment has as its target T8, Spy D26K R43D (UniProt P77754 24-161, D26K | R43D).
T8 construct: source: E. coli BL21 (DE3), purified (Ni-NTA, cation exchange, SEC); not shown: His6, N-terminal, cleaved; SUMO, N-terminal, cleaved
T8 sequence (looked up): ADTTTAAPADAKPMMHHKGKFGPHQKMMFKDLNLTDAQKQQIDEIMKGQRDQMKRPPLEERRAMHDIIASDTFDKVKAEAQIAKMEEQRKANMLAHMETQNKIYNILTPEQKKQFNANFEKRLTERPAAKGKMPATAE
The procedure, abridged: as §1

B1: Im7 H40W L53A I54A (natural protein)
chain: MELKNSISDYTEAEFVQLLKEIEKENVAATDDVLDVLLEWFVKITEHPDGTDAAYYPSDNRDDSPEGIVKEIKEWRAANGKPGFKQG
modifications: biotin (EZ-link NHS-biotin, 1:1 molar ratio of biotin to protein)
notes: Im7 (colicin E7 immunity protein) with H40W L53A I54A; Spy was made with an N-terminal His6-SUMO tag that was cleaved; also called Im7AAW; partially folded client; source: purified by a similar procedure to Spy
For B1, the koff with Spy_(R89D D26K) was 0.2 s⁻¹; in the experiment with Spy D26K R50D it was 0.147 s⁻¹; with Spy H65D, 0.427 s⁻¹; with Spy D26K K75D it was 0.0595 s⁻¹; with Spy_(D26K K54D R55D) it was 0.425 s⁻¹; in the experiment with Spy_(R50D) it was 0.543 s⁻¹. Besides, the koff in the experiment with Spy_(H96D) is 0.42 s⁻¹; with Spy D26K R43D it was 0.202 s⁻¹.

In general, koff refers to the first-order rate constant of dissociation.
